We go through 6 molecules from patent publication US20190224291A1 (GENOIMMUNE THERAPEUTICS, published 2019).

For one assay, the target named is T1, HLA-A0201 on T2 cells (human).
T1 construct: MHC class I on TAP-deficient T2 cells; also called HLA-A2; HLA-A0201 molecule
In words: T2 cell peptide binding assay, flow cytometry with FITC anti-HLA-A0201, peptide 100 uM. A general note: A flow cytometer gives signals particle by particle.
Procedure: (§1) Cells were collected by centrifugation of the cell culture at 200 g for 5 minutes. The collected cells were washed twice with PBS, and then directly incubated with FITC-conjugated anti-HLA-A0201 monoclonal antibody at 4° C. for 30 minutes. The mean fluorescence intensity (MFI) was then detected and analyzed by flow cytometer (BD FACSJazz™) and its software. The fluorescence index (FI) was calculated by using the following formula:
Consider FMVDGSWSI (Synthetic peptide, purity >90%) [wild-type peptide FMVDGSWSI], for which the Average fluorescence intensity was determined as 772.

On to FMVDGFWSV (Synthetic peptide) [variant peptide FMVDGFWSV], for which the Average fluorescence intensity was 721.

FMVDGFWSL (Synthetic peptide) [variant peptide FMVDGFWSL] yielded an Average fluorescence intensity of 748.

For FLVDGFWSL (Synthetic peptide) [variant peptide FLVDGFWSL], the Average fluorescence intensity worked out at 664.

The molecule FLVDGFWSV (Synthetic peptide) [variant peptide FLVDGFWSV] came in with an Average fluorescence intensity of 642.

In turn, FLVDGFWSI (Synthetic peptide) [variant peptide FLVDGFWSI] registered an Average fluorescence intensity of 701.

For the next assay, the target named is T1, HLA-A0201 on T2 cells. In words: T2 cell peptide binding assay, fluorescence index = (MFI sample - MFI background)/MFI background, peptide 100 uM.
Procedure: as §1
FMVDGSWSI (Synthetic peptide, purity >90%) [wild-type peptide FMVDGSWSI]: the FI amounted to 2.38.

Regarding FMVDGFWSV (Synthetic peptide) [variant peptide FMVDGFWSV], the FI was found to be 2.16.

Consider FMVDGFWSL (Synthetic peptide) [variant peptide FMVDGFWSL], for which the FI is 2.28.

In the case of FLVDGFWSL (Synthetic peptide) [variant peptide FLVDGFWSL], the FI was found to be 1.91.

As for FLVDGFWSV (Synthetic peptide) [variant peptide FLVDGFWSV], the FI is 1.81.

Regarding FLVDGFWSI (Synthetic peptide) [variant peptide FLVDGFWSI], the FI stood at 2.07.
